Each block holds one binder with its values, some of them ahead of it.
Biological target: T1, DLL4 ECD His tag (UniProt Q9NR61 27-529, limits assumed)
T1 construct: extracellular domain; also called DLL ECD His tag
Experiment: SPR (Biacore), DVD-Ig captured, DLL4 as analyte

B2: DVD520 (bispecific antibody, human IgG1, kappa, lambda)
heavy: not shown
light: DIQMTQSPSSLSASVGDRVTITCRASQDVSTAVAWYQQKPGKAPKLLIYSASFLYSGVPSRFSGSGSGTDFTLTISSLQPEDFATYYCQQSYTTPPTFGQGTKVEIKRTVAAPSVFIFPPQAVVTQESALTTSPGETVTLTCRSSTGAVTTSNYANWVQEKPDHLFTGLIGGTNNRAPGVPARFSGSLIGDKAALTITGAQTEDEAIYFCALWYSNHWVFGGGTKLTVLGQPKAAPSVTLFPPSSEELQANKATLVCLISDFYPGAVTVAWKADSSPVKAGVETTTPSKQSNNKYAASSYLSLTPEQWKSHRSYSCQVTHEGSTVEKTVAPTECS
notes: HC linker long, LC linker long; also called DVD-Ig DVD520
Kd: 3.3 nM
koff: 0.000408 s⁻¹
kon: 124000 M⁻¹ s⁻¹

B3: DVD450 (bispecific antibody, human IgG1, kappa)
heavy: not shown
light: DIQMTQSPSSLSASVGDRVTITCRASQDVSTAVAWYQQKPGKAPKLLIYSASFLYSGVPSRFSGSGSGTDFTLTISSLQPEDFATYYCQQSYTTPPTFGQGTKVEIKRTVAAPSVFIFPPDIVMTQSPDSLAVSLGERATISCRASESVDNYGISFMKWFQQKPGQPPKLLIYAASNQGSGVPDRFSGSGSGTDFTLTISSLQAEDVAVYYCQQSKEVPWTFGGGTKVEIKRTVAAPSVFIFPPSDEQLKSGTASVVCLLNNFYPREAKVQWKVDNALQSGNSQESVTEQDSKDSTYSLSSTLTLSKADYEKHKVYACEVTHQGLSSPVTKSFNRGEC
notes: HC linker long, LC linker long; also called DVD-Ig DVD450
Kd: 7.41 nM
koff: 0.000251 s⁻¹
kon: 33800 M⁻¹ s⁻¹

B6: DVD478 (bispecific antibody, human IgG1, kappa)
heavy: not shown
light: DIQMTQSPSSLSASVGDRVTITCRASQDVSTAVAWYQQKPGKAPKLLIYSASFLYSGVPSRFSGSGSGTDFTLTISSLQPEDFATYYCQQSYTTPPTFGQGTKVEIKRTVAAPDIQMTQSPSSLSASVGDRVTITCRASQDVSTAVAWYQQKPGKAPKLLIYSASFLYSGVPSRFSGSGSGTDFTLTISSLQPEDFATTYYCQQSYTGTVTFGQGTKVEIKRTVAAPSVFIFPPSDEQLKSGTASVVCLLNNFYPREAKVQWKVDNALQSGNSQESVTEQDSKDSTYSLSSTLTLSKADYEKHKVYACEVTHQGLSSPVTKSFNRGEC
notes: HC linker long, LC linker short; also called DVD-Ig DVD478
Kd: 2.22 nM
koff: 0.000167 s⁻¹
kon: 75200 M⁻¹ s⁻¹

B8: DVD456 (bispecific antibody, human IgG1, kappa)
heavy: not shown
light: DIQMTQSPSSLSASVGDRVTITCRASQDVSTAVAWYQQKPGKAPKLLIYSASFLYSGVPSRFSGSGSGTDFTLTISSLQPEDFATYYCQQSYTTPPTFGQGTKVEIKRTVAAPDIVMTQSPDSLAVSLGERATISCRASESVDNYGISFMKWFQQKPGQPPKLLIYAASNQGSGVPDRFSGSGSGTDFTLTISSLQAEDVAVYYCQQSKEVPWTFGGGTKVEIKRTVAAPSVFIFPPSDEQLKSGTASVVCLLNNFYPREAKVQWKVDNALQSGNSQESVTEQDSKDSTYSLSSTLTLSKADYEKHKVYACEVTHQGLSSPVTKSFNRGEC
notes: HC linker long, LC linker short; also called DVD-Ig DVD456
Kd: 1.66 nM
koff: 0.000174 s⁻¹
kon: 104000 M⁻¹ s⁻¹

B10: DVD472 (bispecific antibody, human IgG1, kappa)
heavy: not shown
light: DIQMTQSPSSLSASVGDRVTITCRASQDVSTAVAWYQQKPGKAPKLLIYSASFLYSGVPSRFSGSGSGTDFTLTISSLQPEDFATYYCQQSYTTPPTFGQGTKVEIKRTVAAPSVFIFPPDIQMTQSPSSLSASVGDRVTITCRASQDVSTAVAWYQQKPGKAPKLLIYSASFLYSGVPSRFSGSGSGTDFTLTISSLQPEDFATTYYCQQSYTGTVTFGQGTKVEIKRTVAAPSVFIFPPSDEQLKSGTASVVCLLNNFYPREAKVQWKVDNALQSGNSQESVTEQDSKDSTYSLSSTLTLSKADYEKHKVYACEVTHQGLSSPVTKSFNRGEC
notes: HC linker long, LC linker long; also called DVD-Ig DVD472
Kd: 0.881 nM
koff: 8.64e-05 s⁻¹
kon: 98000 M⁻¹ s⁻¹

The next lines start with the values.

Kd: 3.48 nM
koff: 0.000432 s⁻¹
kon: 124000 M⁻¹ s⁻¹
B1: DVD514 (bispecific antibody, human IgG1, lambda)
heavy: not shown
light: DIQMTQSPSSLSASVGDRVTITCRASQDVSTAVAWYQQKPGKAPKLLIYSASFLYSGVPSRFSGSGSGTDFTLTISSLQPEDFATYYCQQSYTTPPTFGQGTKVEIKRTVAAPQAVVTQESALTTSPGETVTLTCRSSTGAVTTSNYANWVQEKPDHLFTGLIGGTNNRAPGVPARFSGSLIGDKAALTITGAQTEDEAIYFCALWYSNHWVFGGGTKLTVLGQPKAAPSVTLFPPSSEELQANKATLVCLISDFYPGAVTVAWKADSSPVKAGVETTTPSKQSNNKYAASSYLSLTPEQWKSHRSYSCQVTHEGSTVEKTVAPTECS
notes: HC linker short, LC linker short; also called DVD-Ig DVD514

Kd: 2.98 nM
koff: 0.00025 s⁻¹
kon: 83900 M⁻¹ s⁻¹
B4: DVD462 (bispecific antibody, human IgG1, kappa)
heavy: not shown
light: B3 light
notes: HC linker short, LC linker long; also called DVD-Ig DVD462

Kd: 1.25 nM
koff: 0.000139 s⁻¹
kon: 111000 M⁻¹ s⁻¹
B5: DVD466 (bispecific antibody, human IgG1, kappa)
heavy: not shown
light: B6 light
notes: HC linker short, LC linker short; also called DVD-Ig DVD466

Kd: 2.37 nM
koff: 0.00034 s⁻¹
kon: 143000 M⁻¹ s⁻¹
B7: DVD444 (bispecific antibody, human IgG1, kappa)
heavy: not shown
light: B8 light
notes: HC linker short, LC linker short; also called DVD-Ig DVD444

Kd: 0.265 nM
koff: 7.16e-05 s⁻¹
kon: 270000 M⁻¹ s⁻¹
B9: DVD507 (bispecific antibody, human IgG1, kappa, L234A L235A)
heavy: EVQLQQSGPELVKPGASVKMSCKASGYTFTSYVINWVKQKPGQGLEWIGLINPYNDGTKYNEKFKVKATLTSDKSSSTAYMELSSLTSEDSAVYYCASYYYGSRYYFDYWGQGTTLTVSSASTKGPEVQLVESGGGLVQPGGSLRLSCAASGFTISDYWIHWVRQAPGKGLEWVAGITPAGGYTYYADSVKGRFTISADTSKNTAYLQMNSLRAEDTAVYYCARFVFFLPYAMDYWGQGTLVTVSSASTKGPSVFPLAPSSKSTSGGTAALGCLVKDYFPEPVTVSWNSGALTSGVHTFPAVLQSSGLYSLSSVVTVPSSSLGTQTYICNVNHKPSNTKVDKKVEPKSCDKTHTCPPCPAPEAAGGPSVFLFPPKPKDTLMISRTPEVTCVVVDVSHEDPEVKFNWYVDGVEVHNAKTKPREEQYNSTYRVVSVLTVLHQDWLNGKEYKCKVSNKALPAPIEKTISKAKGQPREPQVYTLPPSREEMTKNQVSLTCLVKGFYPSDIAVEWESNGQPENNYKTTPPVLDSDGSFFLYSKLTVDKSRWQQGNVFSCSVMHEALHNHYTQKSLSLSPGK
light: DIQMTQSSSYLSVSLGGRVTITCKASDHINNWLAWYQQKPGNAPRLLISGATSLETGVPSRFSGSGSGKDYTLSITSLQTEDVATYYCQQYWSIPLTFGAGTKLELKRTVAAPSVFIFPPDIQMTQSPSSLSASVGDRVTITCRASQDVSTAVAWYQQKPGKAPKLLIYSASFLYSGVPSRFSGSGSGTDFTLTISSLQPEDFATYYCQQSYTTPPTFGQGTKVEIKRTVAAPSVFIFPPSDEQLKSGTASVVCLLNNFYPREAKVQWKVDNALQSGNSQESVTEQDSKDSTYSLSSTLTLSKADYEKHKVYACEVTHQGLSSPVTKSFNRGEC
notes: HC linker short, LC linker long; also called DVD-Ig DVD507

Kd: 2.96 nM
koff: 0.000295 s⁻¹
kon: 99700 M⁻¹ s⁻¹
B11: DVD484 (bispecific antibody, human IgG1, kappa)
heavy: not shown
light: B10 light
notes: HC linker short, LC linker long; also called DVD-Ig DVD484

Source: patent US20100260668A1 (published 2010)
